What was measured:
[1] = TCMC chelator in an anti-CD37 radioimmunoconjugate; cited from earlier work
Text: Potential ambiguity in these predictions arises due to the nature of the ^212Pb decay series. The decay of ^212Pb to ^212Bi might lead to a decoupling of the progeny ^212Bi from the chelator, adding uncertainty to the biodistribution of radioactivity, especially the α-emitters (i.e., ^212Bi, ^212Po). Using particle and heavy ion transport code system (PHITS) modeling, we have shown that α-particles contribute to more than 90% of dose deposition in 10 µm diameter single cells and 1 cm diameter micro-metastasis, while the dose from β-particles becomes more significant ...

[2] = Radiochemical stability of radiometal complex in saline, radio-iTLC; format: physicochemical; details: 37 MBq mL^-1 in saline at room temperature for 24 h, regardless of PSC-PEG-T concentration (1, 3, 5 µM)
Experimental: (§1) Using [^203Pb]Pb-PSC-PEG-T surrogate, radiochemical stability of [^203Pb]Pb-PSC-PEG-T in saline was monitored for 72 h. Similarly, single species of [^212Bi]Bi-PSC-PEG-T in saline were also monitored for 5 h (five half-lives of ^212Bi). [^203Pb]Pb-PSC-PEG-T and [^212Bi]Bi-PSC-PEG-T were radiolabeled and purified on Sep-Pak® C18 SPE columns as previously described. Next, 7.4 MBq mL^−1 of purified [^203Pb]Pb-PSC-PEG-T and [^212Bi]Bi-PSC-PEG-T were stored in saline supplemented with 5% EtOH and 1 mg mL^−1 sodium ascorbate for 72 h and 5 h, respectively, followed by analysis of radiochemical purity by radio-iTLC method. Then, radiochemical stability of [^212Pb]Pb-PSC-PEG-T and progeny [^212Bi]Bi-PSC-PEG-T were determined by radio-iTLC after storage of 37 MBq mL^−1 radiolabeled [^212Pb]Pb-PSC-PEG-T in saline for 24 h, and further confirmed by radio-HPLC analysis. In human serum, radiochemical stability of [^212Pb]Pb-PSC-PEG-T and progeny [^212Bi]Bi-PSC-PEG-T were determined after incubation of 3.7 MBq [^212Pb]Pb-PSC-PEG-T in 1 mL human serum at 37 °C for 24 h. In addition, metabolic stability of Pb-PSC-PEG-T radiopeptide in serum was determined by radio-HPLC after incubating [^203Pb]Pb-PSC-PEG-T surrogate in human serum for 55 h (five half-lives of ^212Pb). Following the incubation, serum protein was precipitated in ice-cold methanol (1:1.5 v/v) for 10 min, followed by centrifugation at 10,000× g for 10 min. The supernatant was collected and analyzed on radio-HPLC.
In radio-iTLC analysis, 0.1 M NaOAc with 1 mM DTPA was used as mobile phase for ^203Pb, ^212Pb, ^212Bi. Citric acid (0.1 M) was used as mobile phase for ^68Ga. Upon radio-iTLC analysis, 2 µL aliquot sample was spotted on the radio-iTLC strips (2 × 10 cm) and developed in the mobile phase. Radioactivity of ^203Pb and ^212Pb was measured on NaI(Tl) gamma spectroscope using 279 keV and 238 keV gamma peaks, respectively. Radioactivity of ^212Bi on radio-iTLC was measured on the Ludlum Model 3030 α-particle counter. Radio-HPLC analysis was conducted on Agilent 1260 (Agilent, Santa Clara, CA, USA). Binary mobile phases were applied to run 5–60% phase B (acetonitrile) over phase A (0.1% TFA in water) over 10 min on ZORBAX RR Eclipse XDB-C18 column (4.6 × 150 mm, 5 µm). Radioactivity of ^203Pb was measured on flow-through 105S-1 single channel radiation detector (Corroll & Ramsey, Fort Collins, CO, USA). To measure ^212Pb and ^212Bi activity on radio-HPLC, eluate was collected every 10 s on a HPLC fraction collector. Radioactivity of ^212Pb and ^212Bi in each collected eluate was measured on Cobra II automated gamma counter using 238 keV and 583 keV gamma peaks immediately after collection.

[3] = Stability of radiopeptide in saline, radio-HPLC; format: physicochemical; details: 24 h storage in saline, C18, fractions counted on gamma counter
Experimental: as §1, with “Following the incubation, serum protein was precipitated in ice-cold methanol (1:1.5 v/v) for 10 min, followed by centrifugation at 10,000× g for 10 min.” left out, “radio-HPLC. […]” for “radio-HPLC.”

[4] = system: AR42J xenograft; experiment: in vivo; design: species or system mice; details: female, athymic nude, mouse, 24 h
Experimental: (§2) Biodistribution of [^212Pb]Pb-PSC-PEG-T and progeny ^212Bi^3+ was determined in two animal models, including female naïve CD-1Elite mice and athymic mice bearing AR42J tumor xenografts. SSTR2-positve AR42J cells were cultured in 10% Minimum Essential Medium (MEM) supplemented with 10% fetal bovine serum (FBS), 100 units mL^−1 penicillin, and 100 units mL^−1 streptomycin 37 °C in a humidified atmosphere (5% CO2). All animal studies were performed in accordance with the Guide for the Care and Use of Laboratory Animals, according to protocols approved by the University of Iowa Animal Care and Use Committee (protocol#1122453 approved on 16 February 2022). Xenograft of AR42J tumor was developed by subcutaneous (s.c.) injection of 1 × 10^6 cells at the left shoulder of female athymic nude mice. [^212Pb]Pb-PSC-PEG-T was radiolabeled and purified as described above, and kept at room temperature away from light for 3 h before injection, to allow progeny ^212Bi to approach equilibrium before injection. Upon assay, 74 kBq [^212Pb]Pb-PSC-PEG-T (peptide mass = 5–10 pmole) were injected via tail vein (n = 2–3). Animals were euthanized at designated time points (1, 5, 24 h for naïve CD-1 mice; 1, 4 h for AR42J-bearing mice). Organs of interest and tumors were collected, rinsed, and weighed. Radioactivity of ^212Pb and ^212Bi in each sample was measured on an automated gamma counter by 238 keV and 583 keV gamma peaks, respectively. ^212Bi was purified from the generator eluate on RE2 resin and collected in pH = 6 sodium acetate as described above. Biodistribution of free ^212Bi in normal organs was determined at 2 h post injection of 74 kBq ^212Bi in naïve female CD-1 Elite mice (n = 3). Radioactivity in samples was decay corrected and data were expressed as percent injected dose per gram of tissue (%ID/g). SPECT imaging of [^203Pb]Pb-PSC-PEG-T and [^212Pb]Pb-PSC-PEG-T in female athymic nude mice bearing AR42J xenograft (n = 2) was conducted on Bioemtech Gamma-Eye Imaging system (Bioemtech, Athens, Greece) with 30–500 keV dynamic range and 1.9 mm spatial resolution. Whole body 2D-SPECT imaging of [^203Pb]Pb-PSC-PEG-T and [^212Pb]Pb-PSC-PEG-T were collected at 3 h and 24 h (n = 2) post injection of 1.8 MBq [^203Pb]Pb-PSC-PEG-T (52 MBq nmole^−1) and 3.7 MBq [^212Pb]Pb-PSC-PEG-T (20 MBq nmole^−1). SPECT images were generated by acquiring ten 30 s projections. Imaging data were reconstructed and normalized to percent of injected dose (%ID) in tumor and kidneys based on region of interest (ROI) analysis on VISUAL-Eyes software (Bioemtech, Athens, Greece). Animals were euthanized after conclusion of the study at 24 h post injection. Tumor xenografts and organs of interest were collected and weighed. Radioactivity of ^203Pb or ^212Pb was determined on automated gamma counter and normalized to %ID/g.

[5] = system: SSTR2-positive AR42J xenografts; experiment: in vivo; design: species or system mice; details: female, athymic nude, mouse, iv, 74 kBq, 1 h
Experimental: as §2

Row | Structure (SMILES) | ^212Bi^3+ ejected from chelator [1] [%] | ^212Pb remained in PSC-PEG-T [2] | radiochemical purity (radiometal remained incorporated as radiopeptide) [3] [%] | activity in lungs [4] [%ID/g] | accumulation in adrenal glands [5] [%ID/g] | accumulation in bones [5] [%ID/g] | accumulation in kidneys [5] [%ID/g] | accumulation in liver [5] [%ID/g] | accumulation in spleen [5] [%ID/g]
1 | NC(=O)CN1CCN(CC(N)=O)CCN(CC(N)=O)CCN(CC(N)=O)CC1 [TCMC, 1,4,7,10-Tetrakis(carbamoylmethyl)-1,4,7,10-tetraazacyclododecane] | 16 | – | – | – | – | – | – | – | –
2 | C[C@@H](O)[C@@H]1NC(=O)[C@H](CCCCN)NC(=O)[C@@H](Cc2c[nH]c3ccccc23)NC(=O)[C@H](Cc2ccc(O)cc2)NC(=O)[C@@H](NC(=O)[C@@H](Cc2ccccc2)NC(=O)CCOCCOCCNC(=O)CN2CCN(CC(=O)O)CCN(CC(N)=O)CCN(CC(=O)O)CC2)CSSC[C@@H](C(=O)N[C@H](CO)[C@@H](C)O)NC1=O [[^212Pb]Pb-PSC-PEG-T] [metal not drawn] | – | More than 99.6% | > 95 | 0.3 | 3.6 | 1.4 | 28.1 | 0.8 | 0.6

From article PMC9966725, “Preclinical Evaluation of a Lead Specific Chelator (PSC) Conjugated to Radiopeptides for ^203Pb and ^212Pb-Based Theranostics” (Pharmaceutics, 2023)
